Measured values: publication PMC11885566 (Communications Biology, 2025)
Residue numbers refer to the chain shown, from its start.

B1: CYFN1006-1 (antibody, V domains shown)
VH: QMQLVQSGAEVKKPGESLKISCKGSGYTFSYYWIGWVRQMPGKGLEWMGIIYPGDSDTRYSPSFQGQVTISADKSISTAYLHWSSLKASDTAMYYCARQGDLGDWILLGYWGQGTLVTVSS
VL: QSALTQPRSVSGSLGQSVTISCTGISSDVGGDNYVSWYQQHPGKAPKLMIYDVSKRPSGVPDRFSGSKSGNTASLTISGLQADDEADYYCCSYALSRVVFGGGTMLTVL
B2: CYFN1006-2 (antibody, V domains shown)
VH: B1 VH
VL: B1 VL with R8P, V10A, L14P, I25A, D32Y, D52E, S54N

Tests used:
[1] = molecular target: SARS-CoV-2 wild-type RBD protein (BLI) (SARS-CoV-2, UniProt P0DTC2); assay: BLI
[2] = molecular target: SARS-CoV RBD protein (BLI) (SARS-CoV (isolate of the bought protein …, UniProt P59594)); assay: BLI
[3] = molecular target: SARS-CoV-2 S2 subdomain protein with D7-tag (SARS-CoV-2 (NC_045512.2, Wuhan-Hu-1), UniProt P0DTC2); assay: ELISA
[4] = molecular target: SARS-CoV-2 NTD protein with D7-tag (SARS-CoV-2 (NC_045512.2, Wuhan-Hu-1), UniProt P0DTC2); assay: ELISA
[5] = molecular target: T1, SARS-CoV-2 S ectodomain with D7-tag (SARS-CoV-2, UniProt P0DTC2); assay: cell-based or functional assay
[6] = molecular target: T1, SARS-CoV-2 S ectodomain with D7-tag; assay: ELISA
[7] = molecular target: SARS-CoV-2 S1 subdomain protein with D7-tag (SARS-CoV-2 (NC_045512.2, Wuhan-Hu-1), UniProt P0DTC2); assay: ELISA
[8] = molecular target: SARS-CoV-2 RBD protein with D7-tag (SARS-CoV-2, UniProt P0DTC2); assay: ELISA

Binder | Kd [1] [nM] | Kd [2] [nM] | binding result [3] | binding result [4] | neutralisation of SARS-CoV-2, IC50 [5] [ng/mL] | binding result [1] | binding result [6] | binding result [7] | binding result [8]
B1 | < 0.001 | 32.4 | no binding | no binding | < 5 | – | – | – | –
B2 | – | – | no binding | no binding | – | binds | binds | binds | binds
